Like-named read-outs stand apart in the source and are kept apart here.
B1: Onart-Fab-C4 (Fab of Onartuzumab fused to monomeric Fc C4) (Fc fusion)
chain 1: EVQLVESGGGLVQPGGSLRLSCAASGYTFTSYWLHWVRQAPGKGLEWVGMIDPSNSDTRFNPNFKDRFTISADTSKNTAYLQMNSLRAEDTAVYYCATYRSYVTPLDYWGQGTLVTVSSASTKGPSVFPLAPSSKSTSGGTAALGCLVKDYFPEPVTVSWNSGALTSGVHTFPAVLQSSGLYSLSSVVTVPSSSLGTQTYICNVNHKPSNTKVDKKVEPKSCPEFLGGPSVFLFPPKPKDTLYITREPEVTCVVVDVSQEDPEVQFNWYVDGVEVHNAKTKPREEQFNSTYRVVSVLTVLHQDWLNGKEYKCKVSNKGLPSSIEKTISKAKGQPREPQVYTFPPSQEEMTKNQVSLRCLVKGFYPSDIAVEWESNGQPENNYKTTKPVLDSDGSFRLESRLTVDKSRWQEGNVFSCSVMHEALHNHYTQKSLSLSLGK
chain 2: DIQMTQSPSSLSASVGDRVTITCKSSQSLLYTSSQKNYLAWYQQKPGKAPKLLIYWASTRESGVPSRFSGSGSGTDFTLTISSLQPEDFATYYCQQYYAYPWTFGQGTKVEIKRTVAAPSVFIFPPSDEQLKSGTASVVCLLNNFYPREAKVQWKVDNALQSGNSQESVTEQDSKDSTYSLSSTLTLSKADYEKHKVYACEVTHQGLSSPVTKSFNRGEC

What was measured:
[1] = biological target: Clone 4 (C4), monomeric IgG4 Fc with YTE; assay: BLI; Octet384; binding of inactive IdeS (C94S) to Fc; who was immobilised not told
[2] = biological target: T1, Recombinant human FcRn (soluble) (human, UniProt P55899 24-297; P61769 21-119, biotin (biotinylated FcRn; which chain and site not stated)); assay: BLI; Octet384; biotinylated FcRn captured on streptavidin biosensors, Fc variants in solution; 100 mM MES pH 6.0, 3 mg/ml BSA, 0.05% Tween 20; steady-state analysis, apparent KD, avidity binding format
[3] = biological target: T1, Recombinant human FcRn (soluble); assay: cell-based or functional assay

T1 sequence (P55899 24-297, chain 1 of 2): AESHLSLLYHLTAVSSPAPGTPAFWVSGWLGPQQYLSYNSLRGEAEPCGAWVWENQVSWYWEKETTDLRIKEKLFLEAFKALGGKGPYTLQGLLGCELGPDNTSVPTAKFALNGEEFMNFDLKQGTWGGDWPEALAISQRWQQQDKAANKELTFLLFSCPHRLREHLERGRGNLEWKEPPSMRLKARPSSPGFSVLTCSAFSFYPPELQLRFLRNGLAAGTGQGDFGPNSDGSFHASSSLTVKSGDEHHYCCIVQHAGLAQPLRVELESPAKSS
T1 sequence (P61769 21-119, chain 2 of 2): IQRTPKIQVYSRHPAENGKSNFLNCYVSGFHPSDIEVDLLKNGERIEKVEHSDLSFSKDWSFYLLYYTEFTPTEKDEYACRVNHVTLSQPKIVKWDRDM

Molecule | Kd [2] | further results
Inactive form of IgG-degrading enzyme of S. pyogenes (IdeS, C94S) |  | Kd [1]: 3000 nM
IgG4 wildtype Fc (domain or fragment) | 140 nM | 
IgG1 mAb control (antibody) | 270 nM | 
IgG1 YTE (antibody) | 39 nM | 
B1 |  | terminal half-life (T1/2) in hFcRn transgenic mice, 2.5 mg/kg intravenous [3]: 21 h; Kd ([2]; both partners purified): 160 nM
